Values quoted from earlier work, collected in publication PMC2875293.
pKd: −log10 of the molar value.

Target: Sep15 (Homo sapiens) (UniProt O60613)
Sequence (O60613 32-165): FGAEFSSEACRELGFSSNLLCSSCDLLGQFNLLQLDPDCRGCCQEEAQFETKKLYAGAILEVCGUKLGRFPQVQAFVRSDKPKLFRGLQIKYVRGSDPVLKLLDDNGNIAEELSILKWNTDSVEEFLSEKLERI

Chain of GT1 (UDP-glucose:glycoprotein glucosyltransferase 1) (Q9NYU2 43-1555): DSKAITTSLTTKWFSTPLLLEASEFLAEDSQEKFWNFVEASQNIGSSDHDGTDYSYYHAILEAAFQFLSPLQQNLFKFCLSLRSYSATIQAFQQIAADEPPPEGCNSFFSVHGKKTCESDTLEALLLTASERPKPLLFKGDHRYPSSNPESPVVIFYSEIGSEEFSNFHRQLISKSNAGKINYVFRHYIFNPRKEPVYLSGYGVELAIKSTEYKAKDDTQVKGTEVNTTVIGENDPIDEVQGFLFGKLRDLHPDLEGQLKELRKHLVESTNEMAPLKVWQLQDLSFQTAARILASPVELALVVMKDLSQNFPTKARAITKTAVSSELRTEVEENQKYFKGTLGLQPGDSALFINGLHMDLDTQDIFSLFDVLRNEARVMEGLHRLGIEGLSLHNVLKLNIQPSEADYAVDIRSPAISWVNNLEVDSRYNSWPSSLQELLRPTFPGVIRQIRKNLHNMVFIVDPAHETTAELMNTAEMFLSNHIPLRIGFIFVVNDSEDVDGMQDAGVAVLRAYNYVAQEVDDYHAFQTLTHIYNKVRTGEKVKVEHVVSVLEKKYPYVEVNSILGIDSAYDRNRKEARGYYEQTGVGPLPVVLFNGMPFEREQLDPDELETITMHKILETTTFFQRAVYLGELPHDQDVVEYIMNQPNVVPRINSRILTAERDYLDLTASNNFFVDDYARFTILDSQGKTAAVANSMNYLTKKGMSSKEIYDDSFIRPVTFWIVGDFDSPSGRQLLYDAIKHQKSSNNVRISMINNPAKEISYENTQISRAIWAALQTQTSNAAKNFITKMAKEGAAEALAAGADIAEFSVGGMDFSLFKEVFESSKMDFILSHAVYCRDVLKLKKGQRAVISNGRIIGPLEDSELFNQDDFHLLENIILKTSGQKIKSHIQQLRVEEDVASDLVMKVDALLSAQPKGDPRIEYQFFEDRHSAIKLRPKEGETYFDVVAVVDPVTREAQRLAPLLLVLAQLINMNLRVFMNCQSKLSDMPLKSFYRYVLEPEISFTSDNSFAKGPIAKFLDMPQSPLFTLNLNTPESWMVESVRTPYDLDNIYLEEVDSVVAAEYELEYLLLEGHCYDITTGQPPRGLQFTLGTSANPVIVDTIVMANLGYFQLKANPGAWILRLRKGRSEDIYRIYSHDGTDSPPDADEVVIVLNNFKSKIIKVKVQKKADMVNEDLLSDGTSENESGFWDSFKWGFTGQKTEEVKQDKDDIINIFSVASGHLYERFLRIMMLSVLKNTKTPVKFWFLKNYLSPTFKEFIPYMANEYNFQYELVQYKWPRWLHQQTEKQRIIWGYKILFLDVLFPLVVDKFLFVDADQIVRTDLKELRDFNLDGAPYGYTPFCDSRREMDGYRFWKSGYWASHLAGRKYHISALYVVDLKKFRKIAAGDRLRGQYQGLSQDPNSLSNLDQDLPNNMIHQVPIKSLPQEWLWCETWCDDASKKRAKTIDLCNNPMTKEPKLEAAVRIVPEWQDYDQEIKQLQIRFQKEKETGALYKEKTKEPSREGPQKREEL

Substance: GT1 (UDP-glucose:glycoprotein glucosyltransferase 1) (from UniProt Q9NYU2)
- pKd: > 7.70
